The record followed here is paper doi:10.1101/689042v1.

Substrate in series [1]: OC[C@@H](O)[C@H](O)[C@H](O)[C@@H](O)CO
Put plainly: purified protein. The series is classed as biochemical, Sinorhizobium meliloti. To be noted: 1.5 mM NAD+, 20 mM CAPS pH 11.

Substrate in series [2]: OC[C@@H](O)[C@@H](O)[C@H](O)[C@@H](O)CO
Put plainly: purified protein. The series is classed as biochemical, Sinorhizobium meliloti. Particulars: 1.5 mM NAD+, 20 mM CAPS pH 11.

B1: SmoS (SmSmoS) (Sinorhizobium meliloti 1021) (protein)
chain: MKRLEGKSALITGSARGIGRAFAEAYVREGATVAIADIDIERARQAAAEIGPAAYAVQMDVTRQDSIDAAIAATVEHAGGLDILVNNAALFDLAPIVEITRESYEKLFAINVAGTLFTLQAAARQMIAQGRGGKIINMASQAGRRGEALVAIYCATKAAVISLTQSAGLDLIKHRINVNAIAPGVVDGEHWDGVDALFARYENRPRGEKKRLVGEAVPFGRMGTAEDLTGMAIFLASAESDYIVSQTYNVDGGNWMS
Consider B1, for which the Km in the series “purified protein [1]” was determined as 1200 µM; in “purified protein [2]” it was 2500 µM. Besides, the kcat in “purified protein [1]” came to 3227.1 s⁻¹; in the series “purified protein [2]”, 25625.6 s⁻¹.
